Earlier results in US20260109963A1, “COMPOSITIONS, SYSTEMS, AND METHODS FOR REDUCING ADIPOSE TISSUE” (Oisin Biotechnologies, Inc., priority 2023, published 2026).

Tested on: Heart
Details: almost completely abrogated after IV delivery

B1: miR1d: miRNA/target site de-targeting heart & skeletal muscle (nucleic acid)
chain: GGCCGGCCAATACATACTTCTTTACATTCCACGATAATACATACTTCTTTACATTCCAACCGGTAATACATACTTCTTTACATTCCATCACAATACATACTTCTTTACATTCCAGGCCGGCC
modifications: listed as DNA, chemistry not fully specified; the letters are possibly those of the target site
notes: miRNA/target site de-targeting heart & skeletal muscle
  transgene expression in heart (in words): Transgene expression in heart almost
